Assay results as given in paper PMC4636328, “Two Polyhydroxyalkanoate Synthases from Distinct Classes from the Aromatic Degrader Cupriavidus pinatubonensis JMP134 Exhibit the Same Substrate Preference” (PLoS ONE, 2015).

Columns and labels:
purified protein [1] = substrate: C[C@@H](O)CC(=O)SCCNC(=O)CCNC(=O)[C@H](O)C(C)(C)COP(=O)(O)OP(=O)(O)OC[C@H]1O[C@@H](n2cnc3c(N)ncnc32)[C@H](O)[C@@H]1OP(=O)(O)O; experiment: purified protein; type: biochemical, Cupriavidus pinatubonensis; settings: 50 mM PBS, pH 7.5, 20 mM MgCl2, 0.5 mM DTNB, R/S substrate mixture, R isomer counted
purified protein [2] = substrate: CCCCC[C@@H](O)CC(=O)SCCNC(=O)CCNC(=O)[C@H](O)C(C)(C)COP(=O)(O)OP(=O)(O)OC[C@H]1O[C@@H](n2cnc3c(N)ncnc32)[C@H](O)[C@@H]1OP(=O)(O)O; experiment: purified protein; type: biochemical, Pseudomonas aeruginosa; settings: 50 mM PBS, pH 7.5, 20 mM MgCl2, 0.5 mM DTNB, R/S substrate mixture, R isomer counted

B1: PhaC1 (Cupriavidus pinatubonensis JMP134) (protein)
chain: MATGKGAAASSTEGKSQPFKFPPGPLDPATWLEWSRQWQGPEGNGGTVPGGFPGFEAFAASPLAGVKIDPAQLAEIQQRYMRDFTELWRGLAGGDTESAGKLHDRRFASEAWHKNAPYRYTAAFYLLNARALTELADAVEADPKTRQRIRFAVSQWVDAMSPANFLATNPDAQNRLIESRGESLRAGMRNMLEDLTRGKISQTDETAFEVGRNMAVTEGAVVFENEFFQLLQYKPLTDKVYTRPLLLVPPCINKFYILDLQPEGSLVRYAVEQGHTVFLVSWRNPDASMAGCTWDDYIENAAIRAIEVVRDISGQDKINTLGFCVGGTIISTALAVLAARGEHPVASLTLLTTLLDFTDTGILDVFVDEPHVQLREATLGGASGGLLRGVELANTFSFLRPNDLVWNYVVDNYLKGNTPVPFDLLFWNGDATNLPGPWYCWYLRHTYLQNELKEPGKLTVCNEPVDLGAINVPTYIYGSREDHIVPWTAAYASTALLKNDLRFVLGASGHIAGVINPPAKKKRSHWTNDALPESAQDWLAGAEEHHGSWWPDWMTWLGKQAGAKRAAPTEYGSKRYAAIEPAPGRYVKAKA
notes: full length (591 residues), C-terminal His6 tag, pET28a, E. coli BL21(DE3), Ni-NTA purified, about 65 kDa
Km (purified protein [1]): 45.46 ± 6.02 µM
Vmax (purified protein [1]): 38.3 µM/min
kcat (purified protein [1]): 0.664 ± 0.0352 s⁻¹
kcat/Km (purified protein [1]): 14700 ± 3170 M⁻¹ s⁻¹

B2: PhaC1Pa (Pseudomonas aeruginosa PAO1) (protein)
chain: MSQKNNNELPKQAAENTLNLNPVIGIRGKDLLTSARMVLLQAVRQPLHSARHVAHFSLELKNVLLGQSELRPGDDDRRFSDPAWSQNPLYKRYMQTYLAWRKELHSWISHSDLSPQDISRGQFVINLLTEAMSPTNSLSNPAAVKRFFETGGKSLLDGLGHLAKDLVNNGGMPSQVDMDAFEVGKNLATTEGAVVFRNDVLELIQYRPITESVHERPLLVVPPQINKFYVFDLSPDKSLARFCLRNGVQTFIVSWRNPTKSQREWGLTTYIEALKEAIEVVLSITGSKDLNLLGACSGGITTATLVGHYVASGEKKVNAFTQLVSVLDFELNTQVALFADEKTLEAAKRRSYQSGVLEGKDMAKVFAWMRPNDLIWNYWVNNYLLGNQPPAFDILYWNNDTTRLPAALHGEFVELFKSNPLNRPGALEVSGTPIDLKQVTCDFYCVAGLNDHITPWESCYKSARLLGGKCEFILSNSGHIQSILNPPGNPKARFMTNPELPAEPKAWLEQAGKHADSWWLHWQQWLAERSGKTRKAPASLGNKTYPAGEAAPGTYVHER
notes: full length, C-terminal His6 tag, pET28a, E. coli BL21(DE3), Ni-NTA purified
Km (purified protein [2]): 67.28 ± 12.86 µM
Vmax (purified protein [2]): 39 µM/min
kcat (purified protein [2]): 0.94 ± 0.0883 s⁻¹
kcat/Km (purified protein [2]): 13800 ± 4170 M⁻¹ s⁻¹

B3: PhaC2 (Cupriavidus pinatubonensis JMP134) (protein)
chain: MTTAVGTRTLAKTTKKAKKPAASAVAPEAIVDSAPAMTGPNPFVGLRPEDMVSTAQQIGAQCVQEPTLLLQQQTKLAQDLFAVVDGSAPPPCTRDRRFGDPAWQDNPVYRMALQGYQAWRDALTGFVTGSVMDGRSKERAQYFTDLLIDAVAPTNTLLGNPAALRKTFESGGLNLVSGLVNLLTDTLTNQGMPSQVDKSAFRIGKDLAATPGAVVFRNDVLELIQYTPTTANVHARPQLIVPPQVNKFYVFDLSQGKSMVEYLVRNEMQVFMVSWRNPTTLHRDWNLDTYVGALIEAIHAIRDITGSPDVNLHGACSGAMTMSALMGYCAARGEKLVNAATLMVSVFGLDSQSQLGLFATPEAIDAARQGSQARGVLDGGELGRVFAWMRPNDLVWNYWVNNYLLGKAPPAFDILYWNNDTTRLPAGLHGQLLDMLTLNQLSTPGALRVLGQPIDLSAVDCDKYVLAGMTDHITPWKGVYRSVRAFGGKTEFVLSSSGHVQSLINPPGNAKAKFFLNDAQMADPEAWLEGATVTPSSWWEHWSEWLKTRSGPLNAAPSRLGSDRHAPCADAPGRYVTEA
notes: full length (579 residues), C-terminal His6 tag, pET28a, E. coli BL21(DE3), Ni-NTA purified, about 65 kDa
Km (purified protein [1]): 115.93 ± 9.15 µM
Vmax (purified protein [1]): 1.74 µM/min
kcat (purified protein [1]): 0.0625 ± 0.000333 s⁻¹
kcat/Km (purified protein [1]): 533 ± 33.3 M⁻¹ s⁻¹
